Measured values reported in the supplement of paper PMC11246515.
± gives the standard deviation of the averaged measurements.

Test: total protein half-life in vivo (active degradation + dilution); higher = more stable protein
[1] = E. coli NCM3722 delta-clpP delta-lon delta-hslV, growth: N-lim chemostat, doubling time 6 h
[2] = E. coli NCM3722 delta-clpP, growth: N-lim chemostat, doubling time 6 h
[3] = E. coli NCM3722 delta-lon, growth: N-lim chemostat, doubling time 6 h
[4] = E. coli NCM3722 delta-smpB, growth: N-lim chemostat, doubling time 6 h
[5] = wild type E. coli NCM3722, growth: C-lim chemostat, doubling time 3 h
[6] = wild type E. coli NCM3722, growth: C-lim chemostat, doubling time 6 h
[7] = wild type E. coli NCM3722, growth: C-lim chemostat, doubling time 12 h
[8] = wild type E. coli NCM3722, growth: N-lim chemostat, doubling time 6 h
[9] = wild type E. coli NCM3722, growth: N-lim chemostat, doubling time 12 h
[10] = wild type E. coli NCM3722, growth: P-lim chemostat, doubling time 6 h
[11] = wild type E. coli NCM3722, growth: P-lim chemostat, doubling time 12 h
[12] = E. coli NCM3722 delta-hslV, growth: N-lim chemostat, doubling time 6 h

Sequence | total protein half-life in vivo [1] [h] | total protein half-life in vivo [2] [h] | total protein half-life in vivo [3] [h] | total protein half-life in vivo [4] [h] | total protein half-life in vivo [5] [h] | total protein half-life in vivo [6] [h] | total protein half-life in vivo [7] [h] | total protein half-life in vivo [8] [h] | total protein half-life in vivo [9] [h] | total protein half-life in vivo [10] [h] | total protein half-life in vivo [11] [h] | total protein half-life in vivo [12] [h]
MMIKTRFSRWLTFFTFAAAVALALPAKANTWPLPPAGSRLVGENKFHVVENDGGSLEAIAKKYNVGFLALLQANPGVDPYVPRAGSVLTIPLQTLLPDAPREGIVINIAELRLYYYPPGKNSVTVYPIGIGQLGGDTLTPTMVTTVSDKRANPTWTPTANIRARYKAQGIELPAVVPAGLDNPMGHHAIRLAAYGGVYLLHGTNADFGIGMRVSSGCIRLRDDDIKTLFSQVTPGTKVNIINTPIKVSAEPNGARLVEVHQPLSEKIDDDPQLLPITLNSAMQSFKDAAQTDAEVMQHVMDVRSGMPVDVRRHQVSPQTL | 5.73 | 4.84 | 6.23 ± 1.4 | 5.56 | 1.51 ± 0.55 | 2.85 ± 0.33 | 4.13 ± 0.68 | 6.17 | 10.5 | 5.17 | 3.45 | –
MMINVQTVAVIGSGTMGAGIAEVAASHGHQVLLYDISAEALTRAIDGIHARLNSRVTRGKLTAETCERTLKRLIPVTDIHALAAADLVIEAASERLEVKKALFAQLAEVCPPQTLLTTNTSSISITAIAAEIKNPERVAGLHFFNPAPVMKLVEVVSGLATAAEVVEQLCELTLSWGKQPVRCHSTPGFIVNRVARPYYSEAWRALEEQVAAPEVIDAALRDGAGFPMGPLELTDLIGQDVNFAVTCSVFNAFWQERRFLPSLVQQELVIGGRLGKKSGLGVYDWRAEREAVVGLEAVSDSFSPMKVEKKSDGVTEIDDVLLIETQGETAQALAIRLARPVVVIDKMAGKVVTIAAAAVNPDSATRKAIYYLQQQGKTVLQIADYPGMLIWRTVAMIINEALDALQKGVASEQDIDTAMRLGVNYPYGPLAWGAQLGWQRILRLLENLQHHYGEERYRPCSLLRQRALLESGYES | > 8 | – | – | – | – | – | – | – | – | – | – | –
MMKKFIAPLLALLVSGCQIDPYTHAPTLTSTDWYDVGMEDAISGSAIKDDDAFSDSQADRGLYLKGYAEGQKKTCQTDFTYARGLSGKSFPASCNNVENASQLHEVWQKGADENASTIRLN | 3.02 ± 0.51 | 3.75 ± 0.11 | – | 3.95 ± 0.7 | 1.57 | 5.17 ± 0.12 | 8.56 ± 0.22 | 3.97 | 6.57 ± 0.068 | 4.95 | 10.9 | 4.8
MMKTVNELIKDINSLTSHLHEKDFLLTWEQTPDELKQVLDVAAALKALRAENISTKVFNSGLGISVFRDNSTRTRFSYASALNLLGLAQQDLDEGKSQIAHGETVRETANMISFCADAIGIRDDMYLGAGNAYMREVGAALDDGYKQGVLPQRPALVNLQCDIDHPTQSMADLAWLREHFGSLENLKGKKIAMTWAYSPSYGKPLSVPQGIIGLMTRFGMDVTLAHPEGYDLIPDVVEVAKNNAKASGGSFRQVTSMEEAFKDADIVYPKSWAPYKVMEERTELLRANDHEGLKALEKQCLAQNAQHKDWHCTEEMMELTRDGEALYMHCLPADISGVSCKEGEVTEGVFEKYRIATYKEASWKPYIIAAMILSRKYAKPGALLEQLLKEAQERVK | 4.89 ± 0.5 | 2.63 | 3.03 | 2.82 ± 0.23 | 2.94 ± 0.24 | 4.89 ± 0.37 | 9.18 ± 0.49 | 2.53 | 3.87 ± 0.06 | – | – | 2.5 ± 0.084
MMLSATQPLSEKLPAHGCRHVAIIMDGNGRWAKKQGKIRAFGHKAGAKSVRRAVSFAANNGIEALTLYAFSSENWNRPAQEVSALMELFVWALDSEVKSLHRHNVRLRIIGDTSRFNSRLQERIRKSEALTAGNTGLTLNIAANYGGRWDIVQGVRQLAEKVQQGNLQPDQIDEEMLNQHVCMHELAPVDLVIRTGGEHRISNFLLWQIAYAELYFTDVLWPDFDEQDFEGALNAFANRERRFGGTEPGDETA | 4.31 ± 0.33 | 4.73 ± 0.53 | 3.15 ± 0.76 | 3.01 ± 0.68 | 2.21 ± 0.11 | 3.73 ± 0.41 | 5.97 | 3.18 ± 0.091 | 6.55 | 3.94 ± 0.13 | 5.49 ± 2.1 | 2.9 ± 0.15
MMLSEETSAVRPQKQTRFNGAKLVWMLKGSPLTVTSAVIIVLMLLMMIFSPWLATHDPNAIDLTARLLPPSAAHWFGTDEVGRDLFSRVLVGSQQSILAGLVVVAIAGMIGSLLGCLSGVLGGRADAIIMRIMDIMLSIPSLVLTMALAAALGPSLFNAMLAIAIVRIPFYVRLARGQALVVRQYTYVQAAKTFGASRWHLINWHILRNSLPPLIVQASLDIGSAILMAATLGFIGLGAQQPSAEWGAMVANGRNYVLDQWWYCAFPGAAILLTAVGFNLFGDGIRDLLDPKAGGKQS | – | – | – | 4.22 ± 0.1 | – | – | – | 4.15 | 6.94 | – | – | –
MMNDSFCRIIAGEIQARPEQVDAAVRLLDEGNTVPFIARYRKEITGGLDDTQLRNLETRLSYLRELEERRQAILKSISEQGKLTDDLAKAINATLSKTELEDLYLPYKPKRRTRGQIAIEAGLEPLADLLWSDPSHTPEVAAAQYVYADKGVADTKAALDGARYILMERFAEDAALLAKVRDYLWKNAHLVSTVVSGKEEEGAKFRDYFDHHEPLSTVPSHRALAMFRGRNEGVLQLSLNADPQFDEPPKESYCEQIIMDHLGLRLNNAPADSWRKGVVSWTWRIKVLMHLETELMGTVRERAEDEAINVFARNLHDLLMAAPAGLRATMGLDPGLRTGVKVAVVDATGKLVATDTIYPHTGQAAKAAMTVAALCEKHNVELVAIGNGTASRETERFYLDVQKQFPKVTAQKVIVSEAGASVYSASELAAQEFPDLDVSLRGAVSIARRLQDPLAELVKIDPKSIGVGQYQHDVSQTQLARKLDAVVEDCVNAVGVDLNTASVPLLTRVAGLTRMMAQNIVAWRDENGQFQNRQQLLKVSRLGPKAFEQCAGFLRINHGDNPLDASTVHPEAYPVVERILAATQQALKDLMGNSSELRNLKASDFTDEKFGVPTVTDIIKELEKPGRDPRPEFKTAQFADGVETMNDLQPGMILEGAVTNVTNFGAFVDIGVHQDGLVHISSLSNKFVEDPHTVVKAGDIVKVKVLEVDLQRKRIALTMRLDEQPGETNARRGGGNERPQNNRPAAKPRGREAQPAGNSAMMDALAAAMGKKR | 5.48 ± 0.19 | 4.8 ± 0.3 | 4.124 ± 0.019 | 3.26 ± 0.074 | 2.49 ± 0.14 | 4.69 ± 0.19 | 7.55 ± 0.32 | 3.63 ± 0.087 | 5.457 ± 0.049 | 3.88 ± 0.065 | 6.81 ± 0.56 | 3.58 ± 0.041
MMPEIGNGLLCLALGIALLLSVYPLWGVARGDARMMASSRLFAWLLFMSVAGAFLVLVNAFVVNDFTVTYVASNSNTQLPVWYRVAATWGAHEGSLLLWVLLMSGWTFAVAIFSQRIPLDIVARVLAIMGMVSVGFLLFILFTSNPFSRTLPNFPIEGRDLNPLLQDPGLIFHPPLLYMGYVGFSVAFAFAIASLLSGRLDSTYARFTRPWTLAAWIFLTLGIVLGSAWAYYELGWGGWWFWDPVENASFMPWLVGTALMHSLAVTEQRASFKAWTLLLAISAFSLCLLGTFLVRSGVLVSVHAFASDPARGMFILAFMVLVIGGSLLLFAARGHKVRSRVNNALWSRESLLLANNVLLVAAMLVVLLGTLLPLVHKQLGLGSISIGEPFFNTMFTWLMVPFALLLGVGPLVRWGRDRPRKIRNLLIIAFISTLVLSLLLPWLFESKVVAMTVLGLAMACWIAVLAIAEAALRISRGTKTTFSYWGMVAAHLGLAVTIVGIAFSQNYSVERDVRMKSGDSVDIHEYRFTFRDVKEVTGPNWRGGVATIGVTRDGKPETVLYAEKRYYNTAGSMMTEAAIDGGITRDLYAALGEELENGAWAVRLYYKPFVRWIWAGGLMMALGGLLCLFDPRYRKRVSPQKTAPEAV | – | – | 6.56 | 4.59 | – | > 8 | > 16 | – | – | 6.24 | 9.96 | –
MMRIALFLLTNLAVMVVFGLVLSLTGIQSSSVQGLMIMALLFGFGGSFVSLLMSKWMALRSVGGEVIEQPRNERERWLVNTVATQARQAGIAMPQVAIYHAPDINAFATGARRDASLVAVSTGLLQNMSPDEAEAVIAHEISHIANGDMVTMTLIQGVVNTFVIFISRILAQLAAGFMGGNRDEGEESNGNPLIYFAVATVLELVFGILASIITMWFSRHREFHADAGSAKLVGREKMIAALQRLKTSYEPQEATSMMALCINGKSKSLSELFMTHPPLDKRIEALRTGEYLK | 4.24 ± 0.051 | 5.6 ± 0.59 | 4.77 ± 0.29 | 4.77 ± 0.48 | 2.45 ± 0.076 | 4.83 ± 0.3 | 8.92 ± 1.5 | 5.48 ± 0.92 | 10.5 ± 1.2 | 4.81 ± 0.22 | 7.97 ± 0.28 | 5.25 ± 0.11
MMRKMLLAAALSVTAMTAHADYQCSVTPRDDVIVSPQTVQVKGENGNLVITPDGNVMYNGKQYSLNAAQREQAKDYQAELRSTLPWIDEGAKSRVEKARIALDKIIVQEMGESSKMRSRLTKLDAQLKEQMNRIIETRSDGLTFHYKAIDQVRAEGQQLVNQAMGGILQDSINEMGAKAVLKSGGNPLQNVLGSLGGLQSSIQTEWKKQEKDFQQFGKDVCSRVVTLEDSRKALVGNLK [P0ADS9] | 3.83 ± 0.21 | 5 ± 1 | 6.04 ± 0.83 | 5.818 ± 0.046 | 2.92 ± 0.17 | 5.11 ± 0.8 | 8.05 ± 1.5 | 5.76 ± 0.15 | 10.3 ± 0.12 | 5.0188 ± 0.0027 | 10 ± 0.48 | 5.36 ± 0.32
MMSESNKQQAVNKLTEIVANFTAMISTRMPDDVVDKLKQLKDAETSSMGKIIYHTMFDNMQKAIDLNRPACQDTGEIMFFVKVGSRFPLLGELQSILKQAVEEATVKAPLRHNAVEIFDEVNTGKNTGSGVPWVTWDIIPDNDDAEIEVYMAGGGCTLPGRSKVLMPSEGYEGVVKFVFENISTLAVNACPPVLVGVGIATSVETAAVLSRKAILRPIGSRHPNPKAAELELRLEEGLNRLGIGPQGLTGNSSVMGVHIESAARHPSTIGVAVSTGCWAHRRGTLLVHADLTFENLSHTRSAL | – | 6.19 | 6.4 | – | – | – | – | 6.42 | – | 5.88 | – | 6.18
MMSFQKIYSPTQLANAMKLVRQQNGWTQSELAKKIGIKQATISNFENNPDNTTLTTFFKILQSLELSMTLCDAKNASPESTEQQNLEW | – | – | – | – | – | – | 11.7 | 4.64 | – | – | 12 ± 0.84 | –
MMSKINQTDIDRLIELVGGRGNIATVSHCITRLRFVLNQPANARPKEIEQLPMVKGCFTNAGQFQVVIGTNVGDYYQALIASTGQAQVDKEQVKKAARHNMKWHEQLISHFAVIFFPLLPALISGGLILGFRNVIGDLPMSNGQTLAQMYPSLQTIYDFLWLIGEAIFFYLPVGICWSAVKKMGGTPILGIVLGVTLVSPQLMNAYLLGQQLPEVWDFGMFSIAKVGYQAQVIPALLAGLALGVIETRLKRIVPDYLYLVVVPVCSLILAVFLAHALIGPFGRMIGDGVAFAVRHLMTGSFAPIGAALFGFLYAPLVITGVHQTTLAIDLQMIQSMGGTPVWPLIALSNIAQGSAVIGIIISSRKHNEREISVPAAISAWLGVTEPAMYGINLKYRFPMLCAMIGSGLAGLLCGLNGVMANGIGVGGLPGILSIQPSYWQVFALAMAIAIIIPIVLTSFIYQRKYRLGTLDIV | – | – | – | 2.51 | 2.85 ± 0.2 | 4.23 ± 0.33 | 6.59 ± 0.51 | – | – | 4.13 | 6.92 | –
MMTKTQINKLIKMMNDLDYPFEAPLKESFIESIIQIEFNSNSTNCLEKLCNEVSILFKNQPDYLTFLRAMDGFEVNGLRLFSLSIPEPSVKNLFAVNEFYRNNDDFINPDLQERLVIGDYSISIFTYDIKGDAANLLI | 4.14 | – | – | – | – | – | – | – | – | – | – | –
MMVQHLKRRPLSRYLKDFKHSQTHCAHCRKLLDRITLVRDGKIVNKIEISRLDTLLDENGWQTEQKSWAALCRFCGDLHCKTQSDFFDIIGFKQFLFEQTEMSPGTVREYVVRLRRLGNHLHEQNISLDQLQDGFLDEILAPWLPTTSTNNYRIALRKYQHYQRQTCTRLVQKSSSLPSSDIY | 6.005 ± 0.037 | – | – | – | 0.828 ± 0.34 | – | 1.23 | – | – | – | – | –
